Kd data for 5 substances are collected here from paper PMC3315474.

This data set relates to HSF-3xFLAG (Heat Shock Factor) (Drosophila (species not stated)). In words: EMSA. Conditions: Kd per HSF trimer, 20 mM HEPES pH 7.9, 100 mM NaCl, 3 mM MgCl2, 1 mM EDTA, 4 mM DTT, 10% glycerol, 0.1% NP-40, 300 ug/ml BSA, 10 ul, 200 amol probe, 30 min, room temperature.

HSE chr2L:5009892 (42.6 pM) had a dissociation constant (Kd) (Methods print 42.7 pM) of 0.0426 nM. HSE chr2R:3529792 (308 pM) had a Kd of 0.308 nM. For HSE chr3L:4073542 (97.5 pM), the Kd is 0.0975 nM. HSE chr3L:13470978 (221 pM) yielded a Kd (HSF up to 1.5 nM monomer) of 0.221 nM. In the case of HSE chrX:3380775 (224 pM), the Kd was determined as 0.224 nM.
